T1: human GIP receptor (human) (UniProt P48546)
T1 sequence (looked up): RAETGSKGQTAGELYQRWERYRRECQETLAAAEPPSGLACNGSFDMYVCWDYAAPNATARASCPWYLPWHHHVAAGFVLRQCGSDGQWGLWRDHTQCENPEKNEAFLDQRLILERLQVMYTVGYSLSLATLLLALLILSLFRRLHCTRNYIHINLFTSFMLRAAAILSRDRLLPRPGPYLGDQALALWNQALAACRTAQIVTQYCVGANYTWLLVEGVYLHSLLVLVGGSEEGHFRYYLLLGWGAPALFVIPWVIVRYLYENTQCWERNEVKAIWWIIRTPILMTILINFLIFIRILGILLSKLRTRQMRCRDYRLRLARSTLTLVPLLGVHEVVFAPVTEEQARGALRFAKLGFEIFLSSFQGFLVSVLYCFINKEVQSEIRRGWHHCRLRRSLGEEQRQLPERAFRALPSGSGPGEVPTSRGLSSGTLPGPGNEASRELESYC


Legend:
Experiment in all cases: cell-based or functional assay
[1] = target: human GLP1-R (SNAP-GLP-1R expressed in HEK293 cells) (human) (UniProt P43220)
human GLP1-R (SNAP-GLP-1R expressed in HEK293 cells) (human), sequence (P43220 24-463): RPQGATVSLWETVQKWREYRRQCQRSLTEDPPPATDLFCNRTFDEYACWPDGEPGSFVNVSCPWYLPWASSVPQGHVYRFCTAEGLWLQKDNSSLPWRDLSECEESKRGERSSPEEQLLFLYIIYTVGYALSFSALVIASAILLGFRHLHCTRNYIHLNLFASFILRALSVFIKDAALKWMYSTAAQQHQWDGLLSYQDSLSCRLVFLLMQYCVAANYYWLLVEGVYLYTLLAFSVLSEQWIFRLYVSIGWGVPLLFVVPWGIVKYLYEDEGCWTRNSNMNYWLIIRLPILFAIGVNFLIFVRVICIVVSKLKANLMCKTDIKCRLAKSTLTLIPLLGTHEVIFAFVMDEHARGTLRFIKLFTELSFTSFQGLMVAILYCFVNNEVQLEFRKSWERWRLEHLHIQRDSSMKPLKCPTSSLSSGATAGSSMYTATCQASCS

[2] = target: human glucagon receptor (human) (UniProt P47871)
human glucagon receptor (human), sequence (P47871 26-477): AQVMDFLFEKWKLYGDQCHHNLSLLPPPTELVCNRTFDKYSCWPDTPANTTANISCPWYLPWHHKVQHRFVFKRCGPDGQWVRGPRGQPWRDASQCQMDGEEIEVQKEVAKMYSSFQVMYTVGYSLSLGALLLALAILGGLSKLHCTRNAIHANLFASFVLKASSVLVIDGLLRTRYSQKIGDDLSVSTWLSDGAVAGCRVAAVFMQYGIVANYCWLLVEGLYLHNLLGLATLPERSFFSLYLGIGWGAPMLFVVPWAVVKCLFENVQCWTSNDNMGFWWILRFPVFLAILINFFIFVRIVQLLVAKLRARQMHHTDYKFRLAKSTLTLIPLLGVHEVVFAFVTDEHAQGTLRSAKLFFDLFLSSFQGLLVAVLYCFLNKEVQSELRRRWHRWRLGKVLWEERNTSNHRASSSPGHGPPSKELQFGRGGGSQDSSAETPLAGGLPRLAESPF

[3] = target: T1, human GIP receptor (human)
[4] = target: hGLP-1R (Homo sapiens, UniProt P43220)
hGLP-1R, sequence (P43220 24-463): as the sequence (P43220 24-463) above

Binder	GLP1R Internalization EC50 [1] [nM]	Internalization % TOP [1] [%]	Relative cAMP EC50 [2] [nM]	cAMP Rel EC50 (in the presence of 1% HSA) [2] [nM]	Relative cAMP EC50 [3] [nM]	cAMP Rel EC50 (in the presence of 1% HSA) [3] [nM]	Relative cAMP EC50 [4] [nM]	cAMP Rel EC50 (in the presence of 1% HSA) [4] [nM]	cAMP Rel EC50, nM (in the presence of 1% HSA) [2] [nM]	cAMP Rel EC50, nM (in the presence of 1% HSA) [3] [nM]	cAMP Rel EC50, nM (in the presence of 1% HSA) [4] [nM]
YXQGTFTSDFSKXLDKKAQXAFIEWLLEGGPSSGAPPPSEG (synthetic construct; SITE 2: note = 2-Aminoisobutyric Acid; SITE 13: note = alpha-methyl-leucine; SITE 17: note = Lysine is chemically modified through conjugation of the epsilon-amino group of the Lysine side chain with (2-[2-(2-Amino-ethoxy)-ethoxy]-acetyl)-(gamma-Glu)-CO-(CH2) 18-CO2H; SITE 20: n) [Example 37]	51.6	68.3	6.83	1870	0.207	56.4	1.66	514			
YXQGTFTSDFSKXLDKKAQXAFIEYLLEXGPSSGAPPPGEG (synthetic construct; SITE 2: note = 2-Aminoisobutyric Acid; SITE 13: note = alpha-methyl-leucine; SITE 17: note = Lysine is chemically modified through conjugation of the epsilon-amino group of the Lysine side chain with (2-[2-(2-Amino-ethoxy)-ethoxy]-acetyl)2-(gamma-Glu)-CO-(CH2 )18-CO2H; SITE 20:) [Example 55]	79.5	70.7	5.2		0.0856		1.96		960	27.8	479
YXQGTFTSDFSKXLDKKAQXAFIEYLLEXGPSSGAPPPSGS (synthetic construct; SITE 2: note = 2-Aminoisobutyric Acid; SITE 13: note = alpha-methyl-leucine; SITE 17: note = Lysine is chemically modified through conjugation of the epsilon-amino group of the Lysine side chain with (2-[2-(2-Amino-ethoxy)-ethoxy]-acetyl)-(gamma-Glu)-CO-(CH2) 18-CO2H; SITE 20: n) [Example 45]	52.6	62.1	2.08	879	0.112	33.4	1.52	493			
YXQGTFTSDFSKXLDKKAQXAFIEYLIEGGPSSGAPPPSEG (not fully specified; synthetic construct; SITE 2: note = 2-Aminoisobutyric Acid; SITE 13: note = alpha-methyl-leucine; SITE 17: note = Lysine is chemically modified through conjugation of the epsilon-amino group of the Lysine side chain with (2-[2-(2-Amino-ethoxy)-ethoxy]-acetyl)-(gamma-Glu)-CO-gamma -gamma-(CH2)16-CO2H) [Example 49]	37.2	53.2	5.54		0.324		0.706		1310	44.9	151
YXQGTFTSDFSKXLDKKAQXAFIEYLLEXGPSSGAPPPGGS (synthetic construct; SITE 2: note = 2-Aminoisobutyric Acid; SITE 13: note = alpha-methyl-leucine; SITE 17: note = Lysine is chemically modified through conjugation of the epsilon-amino group of the Lysine side chain with (2-[2-(2-Amino-ethoxy)-ethoxy]-acetyl)-(gamma-Glu)-CO-(CH2) 18-CO2H; SITE 20: n) [Example 43]	58.2	68.3	2.71	850	0.101	29.6	1.55	539			
YXQGTFTSDFSXXLDKKAQXAFIEYLLEGGPSSGAPPPSEG (synthetic construct; SITE 2: note = 2-Aminoisobutyric Acid; SITE 12: note = L-ornithine; SITE 13: note = alpha-methyl-leucine; SITE 17: note = Lysine is chemically modified through conjugation of the epsilon-amino group of the Lysine side chain with (2-[2-(2-Amino-ethoxy)-ethoxy]-acetyl)-(gamma-Glu)) [Example 50]	30.1	31.1	4.25		0.29		4.65		1040	69.6	1110
YXQGTFTSDFSRXLDKKAQXAFIEYLLEGGPSSGAPPPGGS (synthetic construct; SITE 2: note = 2-Aminoisobutyric Acid; SITE 13: note = alpha-methyl-leucine; SITE 17: note = Lysine is chemically modified through conjugation of the epsilon-amino group of the Lysine side chain with (2-[2-(2-Amino-ethoxy)-ethoxy]-acetyl)-(gamma-Glu)-CO-(CH2) 18-CO2H; SITE 20: n) [Example 41]	83.7	62.3	8.59	2310	0.258	97.9	2.2	711			
YXQGTFTSDFSKXLDKKAQXAFIEYLLEGGPSSGAPPPSEG (synthetic construct; SITE 2: note = 2-Aminoisobutyric Acid; SITE 13: note = alpha-methyl-leucine; SITE 17: note = Lysine is chemically modified through conjugation of the epsilon-amino group of the Lysine side chain with (gamma-Glu)2-CO-(CH2)16-CO2H; SITE 20: note = 2-Aminoisobutyric Acid; SITE 41:) [Example 58]	56.2	78.1	4.86		0.175		2.93		115	3.75	20.7
YXQGTFTSDFSKXLDKKAQXAFIEYLLEGGPSSGAPPPSEG (not fully specified; synthetic construct; SITE 2: note = 2-Aminoisobutyric Acid; SITE 13: note = alpha-methyl-leucine; SITE 17: note = Lysine is chemically modified through conjugation of the epsilon-amino group of the Lysine side chain with (2-[2-(2-Amino-ethoxy)-ethoxy]-acetyl)-(gamma-Glu)-CO-(CH2) 16-CO2H; SITE 20: n) [Example 48]	44	55.2	3.8		0.27		2.99		728	46.9	570
YXQGTFTSDFSKXLDKKAQXAFIEYLLEXGPSSGAPPPSEG (synthetic construct; SITE 2: note = 2-Aminoisobutyric Acid; SITE 13: note = alpha-methyl-leucine; SITE 17: note = Lysine is chemically modified through conjugation of the epsilon-amino group of the Lysine side chain with (2-[2-(2-Amino-ethoxy)-ethoxy]-acetyl)-(gamma-Glu)-CO-(CH2) 16-CO2H; SITE 20: n) [Example 57]	76.6	73.1	4.37		0.098		3.06		113	3.78	42.7
YXQGTFTSDFSKXLDKKAQXAFIEYLLEXGPSSGEPPPSEG (Aib, αMeL; acylated Lys; C-terminal amide; synthetic construct; SITE 2: note = 2-Aminoisobutyric Acid; SITE 13: note = alpha-methyl-leucine; SITE 17: note = Lysine is chemically modified through conjugation of the epsilon-amino group of the Lysine side chain with (2-[2-(2-Amino-ethoxy)-ethoxy]-acetyl)-(gamma-Glu)-CO-(CH2) 16-CO2H; SITE 20: n) [Example 46]	41	58.1	1.53	393	0.0947	19.6	4.04	601			
YXQGTFTSDFSKXLDKKAQXAFIEYLLEXGPSSGAPPPSSG (synthetic construct; SITE 2: note = 2-Aminoisobutyric Acid; SITE 13: note = alpha-methyl-leucine; SITE 17: note = Lysine is chemically modified through conjugation of the epsilon-amino group of the Lysine side chain with (2-[2-(2-Amino-ethoxy)-ethoxy]-acetyl)-(gamma-Glu)-CO-(CH2) 18-CO2H; SITE 20: n) [Example 44]	51.5	65	2.46	1050	0.116	35.9	1.66	591			
YXQGTFTSDFSKXLDKKAQXQFIEYLLEGGPSSGAPPPSEG (synthetic construct; SITE 2: note = 2-Aminoisobutyric Acid; SITE 13: note = alpha-methyl-leucine; SITE 17: note = Lysine is chemically modified through conjugation of the epsilon-amino group of the Lysine side chain with (2-[2-(2-Amino-ethoxy)-ethoxy]-acetyl)-(gamma-Glu)-CO-(CH2) 16-CO2H; SITE 20: n) [Example 51]	89.2	55.7	5.15		0.421		5.8		856	98.4	1210
YXQGTFTSDFSXXLDKKAQXAFIEYLLEGGPSSGAPPPGGS (synthetic construct; SITE 2: note = 2-Aminoisobutyric Acid; SITE 12: note = L-ornithine; SITE 13: note = alpha-methyl-leucine; SITE 17: note = Lysine is chemically modified through conjugation of the epsilon-amino group of the Lysine side chain with (2-[2-(2-Amino-ethoxy)-ethoxy]-acetyl)-(gamma-Glu)) [Example 62]	40.3	44.9	3.96		0.146		2.72		396	31.2	299
YXQGTFTSDFSKXLDKKAQXAFIEYLLAGGPSSGEPPPSEGX (synthetic construct; SITE 2: note = 2-Aminoisobutyric Acid; SITE 13: note = alpha-methyl-leucine; SITE 17: note = Lysine is chemically modified through conjugation of the epsilon-amino group of the Lysine side chain with (2-[2-(2-Amino-ethoxy)-ethoxy]-acetyl)-(gamma-Glu)-CO-(CH2) 18-CO2H; SITE 20: n) [Example 32]	86.1	64.4	11.6	1440	0.28	66.1	2.55	422			
YXQGTFTSDFSKXLDKKAQXAFIEYLLAGGPSSGEPPPSGEX (not fully specified; synthetic construct; SITE 2: note = 2-Aminoisobutyric Acid; SITE 13: note = alpha-methyl-leucine; SITE 17: note = Lysine is chemically modified through conjugation of the epsilon-amino group of the Lysine side chain with (2-[2-(2-Amino-ethoxy)-ethoxy]-acetyl)-(gamma-Glu)-CO-(CH2) 18-CO2H; SITE 20: n) [Example 33]	106	64.6	7.04	1310	0.285	70.7	1.71	436			
YXQGTFTSDFSRXLDKKAQXAFIEYLLEXGPSSGAPPPGGS (synthetic construct; SITE 2: note = 2-Aminoisobutyric Acid; SITE 13: note = alpha-methyl-leucine; SITE 17: note = Lysine is chemically modified through conjugation of the epsilon-amino group of the Lysine side chain with (2-[2-(2-Amino-ethoxy)-ethoxy]-acetyl)-(gamma-Glu)-CO-(CH2) 18-CO2H; SITE 20: n) [Example 42]	61.4	58.3	5.83	1520	0.115	32.3	2.17	700			
